{
  "source": "paper PMC1092277",
  "key": {"[1]": {"molecular_target": "GST-Chx10 HD R44A (murine)", "assay": "pull-down"}, "[2]": {"molecular_target": "GST-Pax6 HD R44A/R53A/R57A (zebrafish)", "assay": "pull-down"}, "[3]": {"molecular_target": "GST-Pax6 HD (wild type) (zebrafish)", "assay": "pull-down"}, "GST-Pax6 HD N51Q": {"molecular_target": "GST-Pax6 HD N51Q (zebrafish, UniProt P26630 229-288, N279Q)", "sequence (P26630 229-288 N279Q)": "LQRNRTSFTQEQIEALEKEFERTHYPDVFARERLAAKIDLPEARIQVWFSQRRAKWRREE", "assay": "EMSA"}, "GST-Chx10 HD Q50A": {"molecular_target": "GST-Chx10 HD Q50A (mouse, UniProt Q61412 148-207, Q197A)", "sequence (Q61412 148-207 Q197A)": "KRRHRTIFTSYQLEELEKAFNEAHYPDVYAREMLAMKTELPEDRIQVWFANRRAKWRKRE", "assay": "EMSA"}, "GST-Chx10 HD R57A": {"molecular_target": "GST-Chx10 HD R57A (mouse, UniProt Q61412 148-207, R204A)", "sequence (Q61412 148-207 R204A)": "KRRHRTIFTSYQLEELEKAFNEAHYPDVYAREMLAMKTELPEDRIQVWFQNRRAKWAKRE", "assay": "EMSA"}, "GST-Pax6 HD R58A": {"molecular_target": "GST-Pax6 HD R58A (zebrafish, UniProt P26630 229-288, R286A)", "sequence (P26630 229-288 R286A)": "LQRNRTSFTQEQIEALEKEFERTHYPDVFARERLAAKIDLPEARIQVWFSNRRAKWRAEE", "assay": "EMSA"}, "GST-Pax6 HD R53A": {"molecular_target": "GST-Pax6 HD R53A (zebrafish, UniProt P26630 229-288, R281A)", "sequence (P26630 229-288 R281A)": "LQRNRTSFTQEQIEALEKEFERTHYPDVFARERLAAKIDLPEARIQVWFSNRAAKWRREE", "assay": "EMSA"}, "GST-Chx10 HD R53A": {"molecular_target": "GST-Chx10 HD R53A (mouse, UniProt Q61412 148-207, R200A)", "sequence (Q61412 148-207 R200A)": "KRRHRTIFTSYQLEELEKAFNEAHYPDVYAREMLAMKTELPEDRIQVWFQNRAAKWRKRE", "assay": "EMSA"}, "GST-Pax6 HD R57A": {"molecular_target": "GST-Pax6 HD R57A (zebrafish, UniProt P26630 229-288, R285A)", "sequence (P26630 229-288 R285A)": "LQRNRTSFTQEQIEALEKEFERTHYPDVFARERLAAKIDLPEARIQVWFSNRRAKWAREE", "assay": "EMSA"}, "GST-Pax6 HD R44A": {"molecular_target": "GST-Pax6 HD R44A (zebrafish, UniProt P26630 229-288, R272A)", "sequence (P26630 229-288 R272A)": "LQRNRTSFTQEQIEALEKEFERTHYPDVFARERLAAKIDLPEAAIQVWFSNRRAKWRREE", "assay": "EMSA"}},
  "data": [
    {"molecule": "Pax6ΔHD (in vitro translated)", "values": [
      {"measurement": "percent binding", "setting": "[1]", "value": 50, "unit": "%"},
      {"measurement": "percent binding compared with the wild-type HD", "setting": "[2]", "value": "< 10", "unit": "%"}
    ]},
    {"molecule": "Pax6ΔHD(E112A/E120A/D123A/E128A)", "values": [
      {"measurement": "percent binding", "setting": "[3]", "value": 5, "unit": "%"}
    ]},
    {"molecule": "Pax6ΔHD(E112A/E120A/E128A)", "values": [
      {"measurement": "percent residual binding", "setting": "[3]", "value": 15, "unit": "%"}
    ]},
    {"molecule": "Pax6ΔHD(E101A/E112A/E120A/E128A)", "values": [
      {"measurement": "percent binding", "setting": "[3]", "value": 11, "unit": "%"}
    ]},
    {"molecule": "HDp3 (dsDNA) DNA 1: GATCCTCTAGATAATGCGATTAGCGTAG DNA 2: GATCCTACGCTAATCGCATTATCTAGAG", "values": [
      {"measurement": "binding result", "setting": "GST-Pax6 HD N51Q", "value": "no binding"},
      {"measurement": "binding result", "setting": "GST-Chx10 HD Q50A", "value": "binds"},
      {"measurement": "binding result", "setting": "GST-Chx10 HD R57A", "value": "binds"},
      {"measurement": "binding result", "setting": "GST-Pax6 HD R58A", "value": "binds"},
      {"measurement": "binding result", "setting": "GST-Pax6 HD R53A", "value": "no binding"},
      {"measurement": "binding result", "setting": "GST-Chx10 HD R53A", "value": "no binding"},
      {"measurement": "binding result", "setting": "GST-Pax6 HD R57A", "value": "binds"},
      {"measurement": "binding result", "setting": "GST-Pax6 HD R44A", "value": "no binding"}
    ]}
  ]
}
